# Measurements as given in IntAct's records for PubMed 18566586.
# B1: RAC-alpha serine/threonine-protein kinase (Mus musculus), P31750 (parent)
# chain: MNDVAIVKEGWLHKRGEYIKTWRPRYFLLKNDGTFIGYKERPQDVDQRESPLNNFSVAQCQLMKTERPRPNTFIIRCLQWTTVIERTFHVETPEEREEWATAIQTVADGLKRQEEETMDFRSGSPSDNSGAEEMEVSLAKPKHRVTMNEFEYLKLLGKGTFGKVILVKEKATGRYYAMKILKKEVIVAKDEVAHTLTENRVLQNSRHPFLTALKYSFQTHDRLCFVMEYANGGELFFHLSRERVFSEDRARFYGAEIVSALDYLHSEKNVVYRDLKLENLMLDKDGHIKITDFGLCKEGIKDGATMKTFCGTPEYLAPEVLEDNDYGRAVDWWGLGVVMYEMMCGRLPFYNQDHEKLFELILMEEIRFPRTLGPEAKSLLSGLLKKDPTQRLGGGSEDAKEIMQHRFFANIVWQDVYEKKLSPPFKPQVTSETDTRYFDEEFTAQMITITPPDQDDSMECVDSERRPHFPQFSYSASGTA
# Variants of: B1
# Conditions: with hs90a_mouse Hsp90aa1, P07901
row,effect of a mutation on the interaction,Variant
1,increasing interaction,K182M
2,increasing interaction,R222M

# Variants of: B1
# Conditions: with hs90a_mouse Hsp90aa1, P07901
# Remark: another data set of the same source
row,effect of a mutation on the interaction,Variant
1,increasing interaction,T443A

# Variants of: B1
# Conditions: with hs90a_mouse Hsp90aa1, P07901
# Remark: another data set of the same source
row,effect of a mutation on the interaction,Variant
1,increasing interaction,K163M

# Variants of: B1
# Conditions: with hs90a_mouse Hsp90aa1, P07901
# Remark: another data set of the same source
row,effect of a mutation on the interaction,Variant
1,increasing interaction,T450A
